The supplement of paper PMC12042874
± gives the uncertainty stated by the source.

Assay: amyloid nucleation score (Sup35N fusion, yeast selection) (log enrichment); library NNK1; higher = more nucleation; inactive = no reads after selection
How it was run: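 In psi-negative yeast, Sup35N fusions carrying peptides of 20 random codons were induced with 100 μM copper sulfate for 24 hours. The cells then grew 7 days at 30°C on medium lacking adenine and uracil, and plasmid inserts from input and output were Illumina-sequenced, excluding sequences with under 100 input reads. Nucleation score is the DiMSum log enrichment of output over input reads, centred on the mode score of non-aggregating sequences.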

Which amyloid nucleation score does the source give for QCRERLYPHPGLI here?
The amyloid nucleation score was 1.01 ± 0.37.

With QCRITDSFCSGA as the substance, how does the amyloid nucleation score read?
Its amyloid nucleation score is -0.163 ± 0.45.

With QCRQAQLVLFGVSVWTGYVK as the substance, how does the amyloid nucleation score read?
Its amyloid nucleation score is -0.083 ± 0.38.

With QDFNNEFFFSCRAAAKTTNA as the substance, how does the amyloid nucleation score read?
The amyloid nucleation score was -1.54 ± 1.7.

With QDIARPRYIPSNNRKKTREP as the substance, how does the amyloid nucleation score read?
The amyloid nucleation score was -1.35 ± 1.9.

For QDQSGPVLASCIWYLCSETN, which amyloid nucleation score is on record?
The amyloid nucleation score was 7.403 ± 0.052.

With QEGRSFRGYTMVKYVFISRY as the substance, how does the amyloid nucleation score read?
The amyloid nucleation score was 1.38 ± 0.5.

With QEINGKAQWSPIHSISTMAA as the substance, how does the amyloid nucleation score read?
The amyloid nucleation score was 0.33 ± 0.51.

For QEPCGW, which amyloid nucleation score is on record?
The amyloid nucleation score was -0.172 ± 0.29.

For QESVGSNRRVVGDNASLRLL, which amyloid nucleation score is on record?
The amyloid nucleation score was -0.211 ± 0.86.

With QFKFINVDEAHT as the substance, how does the amyloid nucleation score read?
Its amyloid nucleation score is 0.297 ± 1.2.

With QFRGLDLCLRIRRLVAYTGI as the substance, how does the amyloid nucleation score read?
The amyloid nucleation score was 0.285 ± 0.64.

With QGLSYFDCSDWLNYLFFKSY as the substance, how does the amyloid nucleation score read?
The amyloid nucleation score was 0.126 ± 0.27.

With QGMQICHQKHGAWSGYNGRE as the substance, how does the amyloid nucleation score read?
Its amyloid nucleation score is -0.379 ± 0.29.

Which amyloid nucleation score does the source give for QGRTRSYY here?
Its amyloid nucleation score is -0.301 ± 0.82.

For QGSIHY, which amyloid nucleation score is on record?
The amyloid nucleation score was “inactive”.

With QIFVWAFPPSGVSGHVWSRD as the substance, how does the amyloid nucleation score read?
The amyloid nucleation score was 6.497 ± 0.049.

With QIKVTGRRSSDEGSQGGWLL as the substance, how does the amyloid nucleation score read?
The amyloid nucleation score was 3.82 ± 0.081.

With QLAAWSGFN as the substance, how does the amyloid nucleation score read?
The amyloid nucleation score was 0.522 ± 0.28.

For QLELWVSLRCISWLQILRIL, which amyloid nucleation score is on record?
The amyloid nucleation score was 1.06 ± 0.53.

Which amyloid nucleation score does the source give for QLGQAICRSLYNVRSYMQGF here?
The amyloid nucleation score was “inactive”.

Which amyloid nucleation score does the source give for QLKGSSWYYENRVGRSGRGV here?
Its amyloid nucleation score is 0.698 ± 0.49.

With QLLPISGKVWAVISSGLG as the substance, how does the amyloid nucleation score read?
Its amyloid nucleation score is -0.029 ± 0.32.

For QLNFYIR, which amyloid nucleation score is on record?
The amyloid nucleation score was 8.212 ± 0.061.

With QLRAYEFGWETREELNSRPY as the substance, how does the amyloid nucleation score read?
The amyloid nucleation score was -1.64 ± 2.4.

With QLRGWQYSKATREVDSREDR as the substance, how does the amyloid nucleation score read?
The amyloid nucleation score was 0.646 ± 0.79.

Which amyloid nucleation score does the source give for QLSLGHNFLCYVMSMRVREV here?
The amyloid nucleation score was “inactive”.

With QLVTVADLLTKFPGILSWSG as the substance, how does the amyloid nucleation score read?
The amyloid nucleation score was “inactive”.

Which amyloid nucleation score does the source give for QMREFCLNACSINPRFLWAS here?
Its amyloid nucleation score is 1.51 ± 0.31.

With QMSKPARTLKSVRGPLDLRI as the substance, how does the amyloid nucleation score read?
The amyloid nucleation score was -0.389 ± 0.61.

Which amyloid nucleation score does the source give for QNKVCNCDRVFTRFIESNSL here?
Its amyloid nucleation score is -0.254 ± 0.38.

With QNQSFLINPWQGSKLVDPTA as the substance, how does the amyloid nucleation score read?
The amyloid nucleation score was 0.253 ± 0.53.

With QNVACSMH as the substance, how does the amyloid nucleation score read?
Its amyloid nucleation score is 0.093 ± 0.57.

Which amyloid nucleation score does the source give for QPLLTQQK here?
Its amyloid nucleation score is 0.086 ± 0.28.

With QPNNGVPQIMDTV as the substance, how does the amyloid nucleation score read?
The amyloid nucleation score was 0.184 ± 0.43.

Which amyloid nucleation score does the source give for QPSGLGAECYM here?
Its amyloid nucleation score is 0.423 ± 1.4.

With QQSQC as the substance, how does the amyloid nucleation score read?
Its amyloid nucleation score is “inactive”.

For QRMFFYNIIVWNVN, which amyloid nucleation score is on record?
Its amyloid nucleation score is 2.79 ± 0.14.

Which amyloid nucleation score does the source give for QSLFFPFARFVTNILRYYKF here?
The amyloid nucleation score was -0.531 ± 0.45.

For QSPISDCSGQSSCRMCQRYG, which amyloid nucleation score is on record?
Its amyloid nucleation score is 0.408 ± 0.2.

Which amyloid nucleation score does the source give for QSSYVLCHFILE here?
The amyloid nucleation score was -0.219 ± 1.2.

Which amyloid nucleation score does the source give for QSVCSTCSRGPSHCAAGSV here?
The amyloid nucleation score was 0.17 ± 0.31.

For QSYTLYMMSLFKS, which amyloid nucleation score is on record?
Its amyloid nucleation score is -0.34 ± 0.55.

With QTRWWEYHHNLFVLQITFGG as the substance, how does the amyloid nucleation score read?
The amyloid nucleation score was 1.04 ± 0.27.

Which amyloid nucleation score does the source give for QVARLLSHAMWLVGKTL here?
Its amyloid nucleation score is “inactive”.

With QVNRSVDFPSRFIKSY as the substance, how does the amyloid nucleation score read?
Its amyloid nucleation score is -0.687 ± 1.4.

For QVNVN, which amyloid nucleation score is on record?
Its amyloid nucleation score is 0.19 ± 0.5.

Which amyloid nucleation score does the source give for QVRRRVGILRLWFEKWVIGR here?
The amyloid nucleation score was 0.372 ± 0.77.

Which amyloid nucleation score does the source give for QVSCSGFYRRDLSSRL here?
Its amyloid nucleation score is 0.614 ± 0.56.

Which amyloid nucleation score does the source give for QWQIDMIPRCLGDMNLIVLQ here?
The amyloid nucleation score was “inactive”.

For QYFPF, which amyloid nucleation score is on record?
Its amyloid nucleation score is -1.26 ± 1.2.

With QYLLFGYNYNAWERRDLALW as the substance, how does the amyloid nucleation score read?
The amyloid nucleation score was 0.354 ± 0.22.

Which amyloid nucleation score does the source give for QYNTLCFGMSTGYLYLNISS here?
The amyloid nucleation score was 2.83 ± 0.19.

For QYRHRGRQHLMGGNAQCPYV, which amyloid nucleation score is on record?
The amyloid nucleation score was 0.477 ± 0.66.

Which amyloid nucleation score does the source give for RACYTCVPVSGSRMSVRNLW here?
Its amyloid nucleation score is 3.19 ± 0.13.

With RAKLFHWLNWR as the substance, how does the amyloid nucleation score read?
The amyloid nucleation score was 0.282 ± 0.67.

Which amyloid nucleation score does the source give for RALCLWTCKSYMFRN here?
The amyloid nucleation score was -0.13 ± 1.1.

For RALLMTMKFNKMGSFNIESN, which amyloid nucleation score is on record?
Its amyloid nucleation score is 1.77 ± 0.2.

With RARCFHSSLVVRLLRQTAER as the substance, how does the amyloid nucleation score read?
Its amyloid nucleation score is 0.192 ± 1.

With RAVVW as the substance, how does the amyloid nucleation score read?
Its amyloid nucleation score is 0.695 ± 0.8.

For RCCSFRLYLFTEG, which amyloid nucleation score is on record?
The amyloid nucleation score was 4.78 ± 0.068.

With RCDNAQLHIFVHLFRSVSDM as the substance, how does the amyloid nucleation score read?
Its amyloid nucleation score is “inactive”.

For RCGRSVVDGLRCFRLRMAFG, which amyloid nucleation score is on record?
Its amyloid nucleation score is -1.06 ± 1.2.

For RCHESARKVTSGMCCSGWC, which amyloid nucleation score is on record?
Its amyloid nucleation score is 4.12 ± 0.088.

Which amyloid nucleation score does the source give for RCHTLFIVSLYRRVRNHMSC here?
The amyloid nucleation score was 0.558 ± 0.79.

With RCLSQNYCLSLASRLEHMCI as the substance, how does the amyloid nucleation score read?
Its amyloid nucleation score is 0.572 ± 1.1.

Which amyloid nucleation score does the source give for RCRPKVWACS here?
The amyloid nucleation score was -0.102 ± 1.

With RDAVFGPAGVLQI as the substance, how does the amyloid nucleation score read?
Its amyloid nucleation score is -0.122 ± 1.6.

For RDCFIRGKWCTCWHWCEGGE, which amyloid nucleation score is on record?
The amyloid nucleation score was 1.34 ± 0.27.

For RDFRYCFRCVIINMHRDHFQ, which amyloid nucleation score is on record?
The amyloid nucleation score was 3.99 ± 0.06.

With RDFYCFWLG as the substance, how does the amyloid nucleation score read?
The amyloid nucleation score was 4.05 ± 0.08.

With RDIILGVLDRCSHCKNRALI as the substance, how does the amyloid nucleation score read?
Its amyloid nucleation score is 0.223 ± 0.62.

For RDRCT, which amyloid nucleation score is on record?
The amyloid nucleation score was 0.49 ± 0.36.

With RDSLESTVGVKMGNASGVCR as the substance, how does the amyloid nucleation score read?
The amyloid nucleation score was -0.818 ± 1.6.

For REDPIALGSRWTRPISKTLG, which amyloid nucleation score is on record?
Its amyloid nucleation score is 0.734 ± 0.97.

For REEKV, which amyloid nucleation score is on record?
Its amyloid nucleation score is 0.068 ± 0.42.

With RESDFYTLDLRQVMISAEPL as the substance, how does the amyloid nucleation score read?
Its amyloid nucleation score is 0.158 ± 0.36.

Which amyloid nucleation score does the source give for RFANMLNVFENV here?
The amyloid nucleation score was -0.179 ± 0.26.

Which amyloid nucleation score does the source give for RFAVCTNFANIFRLQEDQIR here?
Its amyloid nucleation score is 0.481 ± 0.33.

For RFETRTL, which amyloid nucleation score is on record?
The amyloid nucleation score was 0.93 ± 0.31.

With RFFGKYSTEGLNL as the substance, how does the amyloid nucleation score read?
The amyloid nucleation score was 0.992 ± 0.76.

For RFGTY, which amyloid nucleation score is on record?
Its amyloid nucleation score is -0.067 ± 0.94.

Which amyloid nucleation score does the source give for RFLSSALRARRYSRPVPLVM here?
Its amyloid nucleation score is 1.13 ± 0.76.

For RFLVFPRFCCTRNKPRSETL, which amyloid nucleation score is on record?
The amyloid nucleation score was 0.616 ± 1.2.

Which amyloid nucleation score does the source give for RFNNDMTSLLSGRIAMEYSY here?
Its amyloid nucleation score is -0.344 ± 0.62.

Which amyloid nucleation score does the source give for RFQTGPTLCSPQTEWPVLLN here?
Its amyloid nucleation score is 0.987 ± 0.56.
